Measurements from patent US20110268740A1 (INTERCELL, published 2011).
Numbering of substitutions follows the chain as printed.

B1: scFv-E040-msFcγ2c (Fc fusion)
chain: DADPAQAAELVMTQSPDSLAVSLGERATINCKSSQSVLYSSNNENYLAWYQQKPGQPPKLLIYWASTRESGVPDRFSGSGSGTDFTLTINSVQAEDVAVYYCQQYFMTPITFGQGTRLEIKGGSSRSSSSGGGGSGGGGEVQLLESGGALVQPGRSLRLSCRTSGLNFGDYPINWVRQAPGKGLEWVGFIKSKSYGVTTEFAASVEGRFTISRDDSRGIAYLQMNSLKTEDTAVYYCTSSSGFLYYFDYWGQGTLVTVSSASTKGPSVTSGQAGRKLEPRVPITQNPCPPLKECPPCAAPDLLGGPSVFIFPPKIKDVLMISLSPMVTCVVVDVSEDDPDVQISWFVNNVEVHTAQTQTHREDYNSTLRVVSALPIQHQDWMSGKEFKCKVNNRALPSPIEKTISKPRGPVRAPQVYVLPPPAEEMTKKEFSLTCMITGFLPAEIAVDWTSNGRTEQNYKNTATVLDSDGSYFMYSKLRVQKSTWERGSLFACSVVHEGLHNHLTTKTISRSLGK
B2: scFv-D005-msFcγ2c (Fc fusion)
chain: B1 chain with S40T, E44K, A48G, K59N, L144V
B3: scFv-F052-msFcγ2c (Fc fusion)
chain: B1 chain with L10R, S18A, V37L, E44K, Q52K, D84E, R117K, E140Q, L144Q

Biological target: T1, M2e (SEQ ID NO:48) conjugated to RNAse A (Influenza A virus (consensus of H1, H2 …))
Assay: not given

In order of rising Kd:
1. B2  0.004 nM
2. B3  0.006 nM
3. B1  0.013 nM

Biological target: T1, M2e (SEQ ID NO:48) conjugated to RNAse A
Assay: ELISA, apparent affinity, purified scFv-msFcγ2c on immobilised RNAse A-M2e

In order of falling EC50:
1. B1  0.0883 nM
2. B2  0.0815 nM
3. B3  0.0506 nM
